Experimental data taken from the supplement of paper PMC12042874.
± gives the uncertainty stated by the source.

Test: amyloid nucleation score (Sup35N fusion, yeast selection) (log enrichment); library NNK1; higher = more nucleation; inactive = no reads after selection
Method in brief: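 The nucleation score is the DiMSum log enrichment of output over input reads, centred on the mode score of non-aggregating sequences. Only sequences with 100 or more input reads were scored, using Illumina sequencing of input and output plasmid inserts. Psi-negative yeast expressing Sup35N fused to peptides of 20 random codons were induced 24 hours with 100 μM copper sulfate and grown 7 days at 30°C on medium lacking adenine and uracil.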

Q: With AALTCLCCWAFFVISKNNYQ as the substance, how does the amyloid nucleation score read?
A: The amyloid nucleation score was 0.995 ± 0.58.

Q: Which amyloid nucleation score does the source give for AATGRTVCESREWGKVLAVC here?
A: The amyloid nucleation score was -0.459 ± 0.38.

Q: With AAVRALLYRCVVHVRFFFKE as the substance, how does the amyloid nucleation score read?
A: Its amyloid nucleation score is 1.06 ± 0.54.

Q: Which amyloid nucleation score does the source give for AAWDLVVGQ here?
A: The amyloid nucleation score was -0.473 ± 0.32.

Q: For AAWMWWTLLSTY, which amyloid nucleation score is on record?
A: The amyloid nucleation score was -0.377 ± 0.37.

Q: With ACFWYTL as the substance, how does the amyloid nucleation score read?
A: The amyloid nucleation score was 0.024 ± 0.47.

Q: Which amyloid nucleation score does the source give for ACNTSSIYALTFVCHLSVGV here?
A: Its amyloid nucleation score is 4.67 ± 0.057.

Q: For ACVMRIDAFFMTISVRLLRL, which amyloid nucleation score is on record?
A: The amyloid nucleation score was 1.79 ± 0.3.

Q: For ADFFESEQVHYKSELAKNHG, which amyloid nucleation score is on record?
A: The amyloid nucleation score was 0.049 ± 0.69.

Q: For ADFKEFECDLARPLLGIKFL, which amyloid nucleation score is on record?
A: The amyloid nucleation score was 0.054 ± 0.91.

Q: Which amyloid nucleation score does the source give for ADNFIGVVYTMLVRRYMPNS here?
A: Its amyloid nucleation score is -1.65 ± 1.2.

Q: Which amyloid nucleation score does the source give for ADYTQCRLYVM here?
A: Its amyloid nucleation score is -0.132 ± 0.21.

Q: With AELVQFSCLKLSFKSSENPS as the substance, how does the amyloid nucleation score read?
A: The amyloid nucleation score was 3.06 ± 0.21.

Q: Which amyloid nucleation score does the source give for AESWHVGKS here?
A: The amyloid nucleation score was -0.593 ± 0.59.

Q: For AEYNVGLLSCSNDSLWDQWS, which amyloid nucleation score is on record?
A: Its amyloid nucleation score is “inactive”.

Q: With AFALHSHFLSL as the substance, how does the amyloid nucleation score read?
A: The amyloid nucleation score was 1.75 ± 0.19.

Q: Which amyloid nucleation score does the source give for AFAVTASAITTVPPYREFVG here?
A: Its amyloid nucleation score is -0.545 ± 0.82.

Q: Which amyloid nucleation score does the source give for AFDIVDRSRYILY here?
A: The amyloid nucleation score was 0.58 ± 0.6.

Q: For AFLGYNKIVGLNLAVLNTVG, which amyloid nucleation score is on record?
A: The amyloid nucleation score was “inactive”.

Q: Which amyloid nucleation score does the source give for AFLKLSTRWWKPVIFYKCDL here?
A: Its amyloid nucleation score is -0.932 ± 1.1.

Q: For AFLLEMKTKAATPRCYLRDM, which amyloid nucleation score is on record?
A: The amyloid nucleation score was 0.532 ± 0.85.

Q: With AFMGPWEPFLVHFTRRPSPY as the substance, how does the amyloid nucleation score read?
A: The amyloid nucleation score was -0.856 ± 2.4.

Q: For AFPQFLGCLVIFQSHGRRER, which amyloid nucleation score is on record?
A: The amyloid nucleation score was 8.1 ± 0.064.

Q: With AFPSVRSAFSYLVVPCTICT as the substance, how does the amyloid nucleation score read?
A: The amyloid nucleation score was 0.606 ± 0.53.

Q: For AFQESRGQSNWYIYMLVHTS, which amyloid nucleation score is on record?
A: Its amyloid nucleation score is 1.11 ± 0.54.

Q: Which amyloid nucleation score does the source give for AFSSLTC here?
A: The amyloid nucleation score was -0.087 ± 1.

Q: With AFVLDIYMGMRSRYNDAPS as the substance, how does the amyloid nucleation score read?
A: The amyloid nucleation score was 1.78 ± 0.31.

Q: Which amyloid nucleation score does the source give for AFYSEMGFSDVYILLVYSMM here?
A: The amyloid nucleation score was 4.45 ± 0.073.

Q: For AGDLGPREQGR, which amyloid nucleation score is on record?
A: Its amyloid nucleation score is 0.171 ± 1.2.

Q: For AGDTMAVWLPHQKRGGCFEM, which amyloid nucleation score is on record?
A: The amyloid nucleation score was -0.815 ± 1.2.

Q: With AGVAPYWVPTSEQDQLRRGT as the substance, how does the amyloid nucleation score read?
A: The amyloid nucleation score was -0.721 ± 1.9.

Q: Which amyloid nucleation score does the source give for AGYCVCLYMLEYSGTFGYSH here?
A: The amyloid nucleation score was 1.63 ± 0.19.

Q: Which amyloid nucleation score does the source give for AHIISIKYLGSIFNKRRRFA here?
A: Its amyloid nucleation score is 0.874 ± 0.66.

Q: With AIAGSAMVEGAH as the substance, how does the amyloid nucleation score read?
A: The amyloid nucleation score was 0.985 ± 0.77.

Q: Which amyloid nucleation score does the source give for AIDSVNMTTLRWM here?
A: The amyloid nucleation score was 0.292 ± 0.62.

Q: For AILVGMFYAKTVGGQYRVHG, which amyloid nucleation score is on record?
A: Its amyloid nucleation score is 0.369 ± 0.61.

Q: Which amyloid nucleation score does the source give for AIVSGRTFDKPNMKRCL here?
A: Its amyloid nucleation score is -1.44 ± 0.69.

Q: For AKEVLYFR, which amyloid nucleation score is on record?
A: The amyloid nucleation score was 0.505 ± 0.24.

Q: With AKKWNSSMAKCNFNCLKSVW as the substance, how does the amyloid nucleation score read?
A: The amyloid nucleation score was -2.05 ± 2.7.

Q: With AKMYLRTLYTSPLRLPLAPQ as the substance, how does the amyloid nucleation score read?
A: The amyloid nucleation score was -0.333 ± 1.4.

Q: With AKSREWGDIARFSHPPALRA as the substance, how does the amyloid nucleation score read?
A: The amyloid nucleation score was -0.147 ± 0.4.

Q: For ALCYPLMDSRSSRSYVQTRR, which amyloid nucleation score is on record?
A: Its amyloid nucleation score is 2.61 ± 0.12.

Q: With ALIFYRFLL as the substance, how does the amyloid nucleation score read?
A: The amyloid nucleation score was 0.863 ± 0.41.

Q: With ALILTVIDHVSAHYYVAEDV as the substance, how does the amyloid nucleation score read?
A: The amyloid nucleation score was 5.59 ± 0.081.

Q: Which amyloid nucleation score does the source give for ALLPKFCDIKFVVEKNGENR here?
A: The amyloid nucleation score was 0.181 ± 1.4.

Q: For ALNYSRGMTMVGVCLPHKLT, which amyloid nucleation score is on record?
A: Its amyloid nucleation score is -0.147 ± 0.3.

Q: For ALPHSKFKAMVFRSLWRDRG, which amyloid nucleation score is on record?
A: The amyloid nucleation score was 0.51 ± 1.2.

Q: For ALRAHHSL, which amyloid nucleation score is on record?
A: The amyloid nucleation score was 0.498 ± 0.56.

Q: For ALRRIGSFVVHLDIRAVSQT, which amyloid nucleation score is on record?
A: Its amyloid nucleation score is 1.09 ± 0.5.

Q: Which amyloid nucleation score does the source give for ALSSAALEYNIPVGSGAFVN here?
A: Its amyloid nucleation score is 0.25 ± 1.4.

Q: Which amyloid nucleation score does the source give for ALSSVNFFQLL here?
A: Its amyloid nucleation score is 4.45 ± 0.12.

Q: For ALVALRAY, which amyloid nucleation score is on record?
A: Its amyloid nucleation score is 0.364 ± 1.2.

Q: Which amyloid nucleation score does the source give for ALVFSALLVFRCGDCAASKA here?
A: Its amyloid nucleation score is 4.25 ± 0.062.

Q: For AMKLVPLNLYFKDNKNQSSC, which amyloid nucleation score is on record?
A: Its amyloid nucleation score is -0.033 ± 0.31.

Q: Which amyloid nucleation score does the source give for AMWYMKCNTYKVWLGDMYLV here?
A: The amyloid nucleation score was 0.193 ± 0.18.

Q: With ANFGFWFAFYSAARSDRTSL as the substance, how does the amyloid nucleation score read?
A: Its amyloid nucleation score is -0.421 ± 1.2.

Q: Which amyloid nucleation score does the source give for ANGLMGSWSLEARSFRSDVL here?
A: The amyloid nucleation score was -0.179 ± 1.5.

Q: For ANTPRFMNTLV, which amyloid nucleation score is on record?
A: The amyloid nucleation score was -0.824 ± 0.51.

Q: For ANWFL, which amyloid nucleation score is on record?
A: The amyloid nucleation score was 0.479 ± 0.45.

Q: Which amyloid nucleation score does the source give for APGDWLLSDASAAVGEMVE here?
A: The amyloid nucleation score was 0.778 ± 0.81.

Q: Which amyloid nucleation score does the source give for APQFTKGFSEFGDLGAMRRA here?
A: Its amyloid nucleation score is 0.196 ± 0.67.

Q: Which amyloid nucleation score does the source give for AQNSWGGILSVTAGQEFYCL here?
A: The amyloid nucleation score was -0.674 ± 1.7.

Q: With AQQGIYCRCTVCGQ as the substance, how does the amyloid nucleation score read?
A: The amyloid nucleation score was 1.41 ± 0.28.

Q: For ARERGCRSAH, which amyloid nucleation score is on record?
A: The amyloid nucleation score was 0.332 ± 0.42.

Q: For ARFMLAWEVNCQG, which amyloid nucleation score is on record?
A: Its amyloid nucleation score is 1.39 ± 0.22.

Q: With ARSFETLLTTSRGGKVDWLT as the substance, how does the amyloid nucleation score read?
A: The amyloid nucleation score was -0.272 ± 0.24.

Q: With ARYRYVTVYQV as the substance, how does the amyloid nucleation score read?
A: The amyloid nucleation score was -0.725 ± 0.35.

Q: For ARYYIVREGSEKCDLLTGRG, which amyloid nucleation score is on record?
A: The amyloid nucleation score was 0.004 ± 0.61.

Q: For ASAMLMHF, which amyloid nucleation score is on record?
A: The amyloid nucleation score was 0.716 ± 0.2.

Q: With ASDMSCMQSNSYFNLWTYTM as the substance, how does the amyloid nucleation score read?
A: The amyloid nucleation score was 1.32 ± 0.4.

Q: For ASFQFSSCMCSLYAVFSRLL, which amyloid nucleation score is on record?
A: The amyloid nucleation score was 0.759 ± 0.44.

Q: For ASFSLDYSFQMPYILRWFIR, which amyloid nucleation score is on record?
A: The amyloid nucleation score was 1.03 ± 0.33.

Q: With ASLAMISRMYSSYLDGMVFS as the substance, how does the amyloid nucleation score read?
A: Its amyloid nucleation score is -0.412 ± 0.91.

Q: Which amyloid nucleation score does the source give for ASLKCEKGVCGVFGWSGVGH here?
A: Its amyloid nucleation score is -0.687 ± 1.4.

Q: With ASLRLSTSLCEYGYRGRYTK as the substance, how does the amyloid nucleation score read?
A: The amyloid nucleation score was -0.05 ± 0.25.

Q: For ASRIHYWWS, which amyloid nucleation score is on record?
A: Its amyloid nucleation score is 0.787 ± 0.25.

Q: For ASRYGSLVPRVVKHLMTRGN, which amyloid nucleation score is on record?
A: The amyloid nucleation score was -1 ± 0.67.

Q: Which amyloid nucleation score does the source give for ASVFLNQLLPCNYSAVRMGS here?
A: The amyloid nucleation score was 0.134 ± 0.84.

Q: With ATCNSVRARGFTPGHHLAPG as the substance, how does the amyloid nucleation score read?
A: Its amyloid nucleation score is -0.405 ± 1.7.

Q: For ATKSLRIYLARVMHETSTFG, which amyloid nucleation score is on record?
A: The amyloid nucleation score was -0.822 ± 0.61.

Q: For ATLEGVCNINHPSCCASLLD, which amyloid nucleation score is on record?
A: Its amyloid nucleation score is 0.002 ± 0.61.

Q: For ATLHGFLLKICLADVLAYLV, which amyloid nucleation score is on record?
A: Its amyloid nucleation score is 0.476 ± 0.42.

Q: With ATMSRGFKQ as the substance, how does the amyloid nucleation score read?
A: Its amyloid nucleation score is 0.834 ± 0.36.

Q: For ATNSEAARYLS, which amyloid nucleation score is on record?
A: The amyloid nucleation score was 0.996 ± 0.62.
